# Experimental data as given in US20190241648A1 (STATEN BIOTECHNOLOGY B V, published 2019).
# Ends that are not written are not given here.
# T1: ApoC3 peptide … V43I (human, not fully specified; cyclic constrained)
# T1 peptide: ARGWITDGFSSLK
# T2: ApoC3 peptide … K51P (human, not fully specified; cyclic constrained)
# T2 peptide: ARGWVTDGFSSLP
# T3: ApoC3 peptide … L50I (human, not fully specified; cyclic constrained)
# T3 peptide: ARGWVTDGFSSIK
# T4: ApoC3 peptide … K51T (human, not fully specified; cyclic constrained)
# T4 peptide: ARGWVTDGFSSLT
# T5: ApoC3 peptide … S49T (human, not fully specified (bridges); also: cyclic constrained)
# T5 peptide: ARGWVTDGFSTLK
# T6: ApoC3 peptide … T44Q (human, not fully specified (bridges); also: cyclic constrained)
# T6 peptide: ARGWVQDGFSSLK
# T7: ApoC3 peptide … W42V (human, not fully specified (bridges); also: cyclic constrained)
# T7 peptide: ARGVVTDGFSSLK
# T8: ApoC3 peptide … K51E (human, thioether (positions not given here); also: cyclic constrained)
# T8 peptide: ARGWVTDGFSSLE
# T9: ApoC3 peptide … S49M (human, cyclic constrained)
# T9 peptide: ARGWVTDGFSMLK
# T10: ApoC3 peptide … D45Q (human, cyclic constrained)
# T10 peptide: ARGWVTQGFSSLK
# T11: ApoC3 peptide … W42H (human, not fully specified (bridges); also: cyclic constrained)
# T11 peptide: ARGHVTDGFSSLK
# T12: ApoC3 peptide … S49W (human, not fully specified (bridges); also: cyclic constrained)
# T12 peptide: ARGWVTDGFSWLK
# T13: ApoC3 peptide … D45R (human, cyclic constrained)
# T13 peptide: ARGWVTRGFSSLK
# T14: ApoC3 peptide … G46R (human, thioether (positions not given here); also: cyclic constrained)
# T14 peptide: ARGWVTDRFSSLK
# T15: ApoC3 peptide … L50Q (human, not fully specified (bridges); also: cyclic constrained)
# T15 peptide: ARGWVTDGFSSQK
# T16: ApoC3 peptide … L50S (human, not fully specified (bridges); also: cyclic constrained)
# T16 peptide: ARGWVTDGFSSSK
# T17: ApoC3 peptide … D45I (human, cyclic constrained)
# T17 peptide: ARGWVTIGFSSLK
# T18: ApoC3 peptide … G41Y (human, also: cyclic constrained)
# T18 peptide: ARYWVTDGFSSLK
# T19: ApoC3 peptide … F47I (human, not fully specified (bridges); also: cyclic constrained)
# T19 peptide: ARGWVTDGISSLK
# T20: ApoC3 peptide … L50R (human, not fully specified (bridges); also: cyclic constrained)
# T20 peptide: ARGWVTDGFSSRK
# T21: ApoC3 peptide … D45P (human, cyclic constrained)
# T21 peptide: ARGWVTPGFSSLK
# T22: ApoC3 peptide … D45M (human, cyclic constrained)
# T22 peptide: ARGWVTMGFSSLK
# T23: ApoC3 peptide … A39I (human, cyclic constrained)
# T23 peptide: IRGWVTDGFSSLK
# T24: ApoC3 peptide … S48G (human, not fully specified; cyclic constrained)
# T24 peptide: ARGWVTDGFGSLK
# T25: ApoC3 peptide … L50P (human, not fully specified (bridges); also: cyclic constrained)
# T25 peptide: ARGWVTDGFSSPK
# T26: ApoC3 peptide … V43C (human, not fully specified; cyclic constrained)
# T26 peptide: ARGWCTDGFSSLK
# Key:
# Test in all cases: peptide microarray
# ApoC3 peptide … S48E = ApoC3 peptide … S48E (human, cyclic constrained)
# In short: (§1)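 Peptide microarrays of ApoC3-derived peptides incubated with antibody samples, then stained with goat anti-human IgG (Fc) DyLight680 (1:5000) and anti-HA DyLight800 (1:2000) control. Read-out by fluorescence scanning at intensities 7/7 (red/green); a secondary-only pre-stain checked background, HA frame peptides served as quality control.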
# ApoC3 peptide … V43I = molecular target: T1, ApoC3 peptide … V43I
# In short: as §1
# ApoC3 peptide … K51P = molecular target: T2, ApoC3 peptide … K51P
# In short: as §1
# ApoC3 peptide … L50I = molecular target: T3, ApoC3 peptide … L50I
# In short: as §1
# ApoC3 peptide … K51T = molecular target: T4, ApoC3 peptide … K51T
# In short: as §1
# ApoC3 peptide … S49F = ApoC3 peptide … S49F (human, cyclic constrained)
# In short: as §1
# ApoC3 peptide … S49T = molecular target: T5, ApoC3 peptide … S49T
# In short: as §1
# ApoC3 peptide … T44Q = molecular target: T6, ApoC3 peptide … T44Q
# In short: as §1
# ApoC3 peptide … W42V = molecular target: T7, ApoC3 peptide … W42V
# In short: as §1
# ApoC3 peptide … K51E = molecular target: T8, ApoC3 peptide … K51E
# In short: as §1
# ApoC3 peptide … S49M = molecular target: T9, ApoC3 peptide … S49M
# In short: as §1
# ApoC3 peptide … D45Q = molecular target: T10, ApoC3 peptide … D45Q
# In short: as §1
# ApoC3 peptide … W42H = molecular target: T11, ApoC3 peptide … W42H
# In short: as §1
# ApoC3 peptide … S49W = molecular target: T12, ApoC3 peptide … S49W
# In short: as §1
# ApoC3 peptide … D45R = molecular target: T13, ApoC3 peptide … D45R
# In short: as §1
# ApoC3 peptide … G46R = molecular target: T14, ApoC3 peptide … G46R
# In short: as §1
# ApoC3 peptide … L50Q = molecular target: T15, ApoC3 peptide … L50Q
# In short: as §1
# ApoC3 peptide … L50S = molecular target: T16, ApoC3 peptide … L50S
# In short: as §1
# ApoC3 peptide … D45I = molecular target: T17, ApoC3 peptide … D45I
# In short: as §1
# ApoC3 peptide … G41Y = molecular target: T18, ApoC3 peptide … G41Y
# In short: as §1
# ApoC3 peptide … F47I = molecular target: T19, ApoC3 peptide … F47I
# In short: as §1
# ApoC3 peptide … L50R = molecular target: T20, ApoC3 peptide … L50R
# In short: as §1
# ApoC3 peptide … D45P = molecular target: T21, ApoC3 peptide … D45P
# In short: as §1
# ApoC3 peptide … D45M = molecular target: T22, ApoC3 peptide … D45M
# In short: as §1
# ApoC3 peptide … A39I = molecular target: T23, ApoC3 peptide … A39I
# In short: as §1
# ApoC3 peptide … S48G = molecular target: T24, ApoC3 peptide … S48G
# In short: as §1
# ApoC3 peptide … L50P = molecular target: T25, ApoC3 peptide … L50P
# In short: as §1
# ApoC3 peptide … V43C = molecular target: T26, ApoC3 peptide … V43C
# In short: as §1
binder,measurement,setting,value
"anti-ApoC3 antibody 14C7 (antibody, V domains shown, it was detected with goat anti-human IgG (Fc); also called mAb 14C7; llama antibody 14C7) VH: QVQVQESGPGLVKPSQTLSLTCTVSGGSITTNSYYWSWIRQPPGKGLEWMGAIDYSGDTYYSPSLKSRTSISRDTSKNQFTLQLTSVTPEDTAVYYCVSRIPTGEYWGQGTQVTVSS VL: QTVVTQEPSLSVSPGGTVTLTCGLNSGSVTSSNYPDWYQQTPGQAPRLLIYNTNSRHSGVPSRFSGSISGNKAALTITGAQPEDEADYYCALYMGSDSVVFGGGTHLTVL",% of binding to wild-type peptide,ApoC3 peptide … S48E,290%
same,% of binding to wild-type peptide,ApoC3 peptide … V43I,41%
same,% of binding to wild-type peptide,ApoC3 peptide … K51P,0.24%
same,% of binding to wild-type peptide,ApoC3 peptide … L50I,9.47%
same,% of binding to wild-type peptide,ApoC3 peptide … K51T,17.5%
same,% of binding to wild-type peptide,ApoC3 peptide … S49F,0.89%
same,% of binding to wild-type peptide,ApoC3 peptide … S49T,6.21%
same,% of binding to wild-type peptide,ApoC3 peptide … T44Q,0%
same,% of binding to wild-type peptide,ApoC3 peptide … W42V,48.3%
same,% of binding to wild-type peptide,ApoC3 peptide … K51E,4.71%
same,% of binding to wild-type peptide,ApoC3 peptide … S49M,1.86%
same,% of binding to wild-type peptide,ApoC3 peptide … D45Q,21%
same,% of binding to wild-type peptide,ApoC3 peptide … W42H,48.6%
same,% of binding to wild-type peptide,ApoC3 peptide … S49W,0.27%
same,% of binding to wild-type peptide,ApoC3 peptide … D45R,20.1%
same,% of binding to wild-type peptide,ApoC3 peptide … G46R,0.3%
same,% of binding to wild-type peptide,ApoC3 peptide … L50Q,0.12%
same,% of binding to wild-type peptide,ApoC3 peptide … L50S,0%
same,% of binding to wild-type peptide,ApoC3 peptide … D45I,2.04%
same,% of binding to wild-type peptide,ApoC3 peptide … G41Y,6.27%
same,% of binding to wild-type peptide,ApoC3 peptide … F47I,0%
same,% of binding to wild-type peptide,ApoC3 peptide … L50R,0%
same,% of binding to wild-type peptide,ApoC3 peptide … D45P,0%
same,% of binding to wild-type peptide,ApoC3 peptide … D45M,21%
same,% of binding to wild-type peptide,ApoC3 peptide … A39I,52.3%
same,% of binding to wild-type peptide,ApoC3 peptide … S48G,3.7%
same,% of binding to wild-type peptide,ApoC3 peptide … L50P,0%
same,% of binding to wild-type peptide,ApoC3 peptide … V43C,0.12%
